Here are results for six molecules from patent US20210253718A1, “FRIZZLED5 PROTEIN-BINDING AGENTS” (Modmab Therapeutics Corporation, priority 2016, published 2021).

In experiment [1] the test system is RWP1 cells. As to the kind of experiment: Effect of anti-FZD5 Fabs on proliferation of pancreatic cancer cell lines (percent growth inhibition). The settings on record: Fab 2 μg/ml. Type of experiment: cell-based, human.
Experiment [2] relates to ASPC-1 cells. The description is as above. In kind it is cell-based, human. The settings on record: Fab 2 μg/ml.
The test system of experiment [3] is PATU8988S cells. Described as above. In kind it is cell-based, human. The settings on record: Fab 2 μg/ml.
The target of experiment [4] is T1, FZD6 CRD (Homo sapiens, UniProt O60353).
T1 construct: S20-P146; GPI anchor signal (C); expressed in transfected cells; host or cells: CHO cells, lentiviral pLenti-puro
T1 sequence (O60353 20-146): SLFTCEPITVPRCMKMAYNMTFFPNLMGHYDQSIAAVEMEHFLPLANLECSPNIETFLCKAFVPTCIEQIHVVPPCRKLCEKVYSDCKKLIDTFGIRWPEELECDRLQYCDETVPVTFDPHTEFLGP
Description: Immunofluorescence of anti-FZD5 Fab binding to CHO cells overexpressing Frizzled CRD. Set-up: key: −: no binding; +: very weak binder; ++: weak binder; +++: good binder; ++++: very good binder. In a few lines:
(§1)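 CHO cell lines each displaying a myc-tagged Frizzled CRD on the plasma membrane via GPI anchor. Recombinant anti-FZD5 Fab binding detected by immunofluorescence and flow cytometry.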

The target of experiment [5] is T2, FZD10 CRD (Homo sapiens, UniProt Q9ULW2).
T2 construct: 30-156; GPI anchor signal (C); expressed in transfected cells; host or cells: CHO cells, lentiviral pLenti-puro
T2 sequence (Q9ULW2 30-156): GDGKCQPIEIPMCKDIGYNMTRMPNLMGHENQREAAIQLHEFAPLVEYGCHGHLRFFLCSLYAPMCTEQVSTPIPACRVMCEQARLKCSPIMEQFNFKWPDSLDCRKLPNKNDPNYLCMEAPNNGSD
The description is as above. Also noted: key: −: no binding; +: very weak binder; ++: weak binder; +++: good binder; ++++: very good binder. In a few lines: as §1

Experiment [6] concerns the target T3, FZD7 CRD (Homo sapiens, UniProt O75084).
T3 construct: D45-S169; GPI anchor signal (C); expressed in transfected cells; host or cells: CHO cells, lentiviral pLenti-puro
The description is as above. Also noted: key: −: no binding; +: very weak binder; ++: weak binder; +++: good binder; ++++: very good binder. The procedure, abridged:
as §1

Experiment [7] has as its system RWP1 cells. Description: Effect of anti-FZD5 Fabs on proliferation of pancreatic cancer cell lines (percent growth inhibition). Type of experiment: cell-based, human. The settings on record: Fab 10 μg/ml. Here is the method:
(§2) The effect of presently disclosed anti-FZD5 Fabs on proliferation of RNF43 loss-of-function mutant pancreatic cancer cell lines HPAFII, PATU8988S and ASPC-1; and on pancreatic cancer cell line RWP1, was tested at […] and 10 μg/ml.

In experiment [8] the test system is PATU8988S cells. The description is as above. Type of experiment: cell-based, human. The settings on record: Fab 10 μg/ml. Here is the method:
as §2

Experiment [9] concerns HPAFII cells. The description is as above. The settings on record: for percent growth inhibition, HPAFII 2 μg/ml: Fab 2 μg/ml; for percent growth inhibition, HPAFII 10 μg/ml: Fab 10 μg/ml. Type of experiment: cell-based, human. The procedure: as §2
For experiment [10], the system named is ASPC-1 cells. The experiment is described as above. Type of experiment: cell-based, human. The settings on record: Fab 10 μg/ml. Here is the method: as §2

B1: Fab-2905: anti-FZD5 Fab with antibody variable region Fv-2905; CDR SEQ ID NOs: 35, 36, 44, 83, 120, 157 (antibody, V domains shown)
VH: EVQLVESGGGLVQPGGSLRLSCAASGFNLSYYYMHWVRQAPGKGLEWVASIYSSYSYTSYADSVKGRFTISADTSKNTAYLQMNSLRAEDTAVYYCARSGYALDYWGQGTLVTVSS
VL: DIQMTQSPSSLSASVGDRVTITCRASQSVSSAVAWYQQKPGKAPKLLIYSASSLYSGVPSRFSGSRSGTDFTLTISSLQPEDFATYYCQQSSWYYGYPFTFGQGTKVEIK
With B1, in experiment [1], the “percent growth inhibition, RWP1 2 μg/ml” value is given as 62.88%. Besides, the “percent growth inhibition, ASPC-1 2 μg/ml” value in experiment [2] is listed as −14.51%. In [3], the “percent growth inhibition, PATU8988s 2 μg/ml” value is given as −26.66%. Further, the “Immunofluorescence binding, Frizzled CRD overexpressed on CHO cells: FZD6” value (shortened to “Immunofluorescence binding … FZD6”) in [4] is “−”. Moreover, in experiment [5], the “Immunofluorescence binding, Frizzled CRD overexpressed on CHO cells: FZD10” value (“Immunofluorescence binding … FZD10” below) is “−”. For the same molecule, in [6], the “Immunofluorescence binding, Frizzled CRD overexpressed on CHO cells: FZD7” value (shortened to “Immunofluorescence binding … FZD7”) is “+”. Also, in [7], the “percent growth inhibition, RWP1 10 μg/ml” value is 41.10%. In addition, the “percent growth inhibition, PATU8988s 10 μg/ml” value in experiment [8] is given as −46.23%. For the same molecule, in [9], the “percent growth inhibition, HPAFII 2 μg/ml” value turned out to be 0.41% and the “percent growth inhibition, HPAFII 10 μg/ml” value is recorded as −12.83%. Also, the “percent growth inhibition, ASPC-1 10 μg/ml” value in experiment [10] is −10.34%.

B2: Fab-2898: anti-FZD5 Fab with antibody variable region Fv-2898; CDR SEQ ID NOs: 35, 36, 37, 76, 113, 152 (antibody, V domains shown)
VH: EVQLVESGGGLVQPGGSLRLSCAASGFNIYSYSMHWVRQAPGKGLEWVASIYSSSGSTSYADSVKGRFTISADTSKNTAYLQMNSLRAEDTAVYYCARAVWGLDYWGQGTLVTVSS
VL: DIQMTQSPSSLSASVGDRVTITCRASQSVSSAVAWYQQKPGKAPKLLIYSASSLYSGVPSRFSGSRSGTDFTLTISSLQPEDFATYYCQQWWGYYSLITFGQGTKVEIK
As to B2, the “percent growth inhibition, RWP1 2 μg/ml” value in experiment [1] amounted to 21.46%. Also, in experiment [2], the “percent growth inhibition, ASPC-1 2 μg/ml” value worked out at 11.14%. Besides, the “percent growth inhibition, PATU8988s 2 μg/ml” value in experiment [3] came out at 4.53%. Also, the “Immunofluorescence binding … FZD6” value in experiment [4] is on record as “−”. Further, in [5], the “Immunofluorescence binding … FZD10” value is recorded as “−”. Also, the “Immunofluorescence binding … FZD7” value in experiment [6] is “+++”. For the same molecule, the “percent growth inhibition, RWP1 10 μg/ml” value in experiment [7] was determined as 26.93%. In addition, in experiment [8], the “percent growth inhibition, PATU8988s 10 μg/ml” value is on record as 0.97%. In experiment [9], the “percent growth inhibition, HPAFII 2 μg/ml” value is on record as 15.80% and the “percent growth inhibition, HPAFII 10 μg/ml” value came to 21.87%. Moreover, in experiment [10], the “percent growth inhibition, ASPC-1 10 μg/ml” value was determined as 25.15%.

B3: Fab-2900: anti-FZD5 Fab with antibody variable region Fv-2900; CDR SEQ ID NOs: 35, 36, 39, 78, 115, 153 (antibody, V domains shown)
VH: EVQLVESGGGLVQPGGSLRLSCAASGFNLSSYYIHWVRQAPGKGLEWVASISSSSSSTSYADSVKGRFTISADTSKNTAYLQMNSLRAEDTAVYYCARGALDYWGQGTLVTVSS
VL: DIQMTQSPSSLSASVGDRVTITCRASQSVSSAVAWYQQKPGKAPKLLIYSASSLYSGVPSRFSGSRSGTDFTLTISSLQPEDFATYYCQQWYSGSSLFTFGQGTKVEIK
Regarding B3, the “percent growth inhibition, RWP1 2 μg/ml” value in experiment [1] was −28.30%. For the same molecule, the “percent growth inhibition, ASPC-1 2 μg/ml” value in [2] is given as −13.30%. Moreover, the “percent growth inhibition, PATU8988s 2 μg/ml” value in experiment [3] was −29.28%. The “Immunofluorescence binding … FZD6” value in experiment [4] was “−”. Also, the “Immunofluorescence binding … FZD10” value in [5] was “−”. Also, the “Immunofluorescence binding … FZD7” value in experiment [6] is “+”. In addition, in [7], the “percent growth inhibition, RWP1 10 μg/ml” value is recorded as −29.81%. Besides, in experiment [8], the “percent growth inhibition, PATU8988s 10 μg/ml” value is reported as −51.41%. In experiment [9], the “percent growth inhibition, HPAFII 2 μg/ml” value is reported as 3.34% and the “percent growth inhibition, HPAFII 10 μg/ml” value stood at 3.46%. The “percent growth inhibition, ASPC-1 10 μg/ml” value in [10] is −1.26%.

B4: Fab-2903: anti-FZD5 Fab with antibody variable region Fv-2903; CDR SEQ ID NOs: 35, 36, 42, 81, 118, 155 (antibody, V domains shown)
VH: EVQLVESGGGLVQPGGSLRLSCAASGFNLSYYYIHWVRQAPGKGLEWVASIYPYSSYTSYADSVKGRFTISADTSKNTAYLQMNSLRAEDTAVYYCARGAIDYWGQGTLVTVSS
VL: DIQMTQSPSSLSASVGDRVTITCRASQSVSSAVAWYQQKPGKAPKLLIYSASSLYSGVPSRFSGSRSGTDFTLTISSLQPEDFATYYCQQWGGGSSLFTFGQGTKVEIK
For the molecule B4, in experiment [1], the “percent growth inhibition, RWP1 2 μg/ml” value came to 8.52%. For the same molecule, the “percent growth inhibition, ASPC-1 2 μg/ml” value in experiment [2] was 4.49%. For the same molecule, the “percent growth inhibition, PATU8988s 2 μg/ml” value in experiment [3] is given as −22.81%. The “Immunofluorescence binding … FZD6” value in [4] is “−”. Besides, the “Immunofluorescence binding … FZD10” value in experiment [5] is “−”. Moreover, the “Immunofluorescence binding … FZD7” value in [6] is “++”. Also, in [7], the “percent growth inhibition, RWP1 10 μg/ml” value is on record as 17.38%. Moreover, in experiment [8], the “percent growth inhibition, PATU8988s 10 μg/ml” value was −16.37%. In [9], the “percent growth inhibition, HPAFII 2 μg/ml” value is −10.34% and the “percent growth inhibition, HPAFII 10 μg/ml” value was −10.98%. In experiment [10], the “percent growth inhibition, ASPC-1 10 μg/ml” value is reported as 14.86%.

B5: Fab-2911: anti-FZD5 Fab with antibody variable region Fv-2911; CDR SEQ ID NOs: 35, 36, 50, 89, 126, 163 (antibody, V domains shown)
VH: EVQLVESGGGLVQPGGSLRLSCAASGFNIYYSSMHWVRQAPGKGLEWVAYIYPYSGYTSYADSVKGRFTISADTSKNTAYLQMNSLRAEDTAVYYCARYFWWYGFDYWGQGTLVTVSS
VL: DIQMTQSPSSLSASVGDRVTITCRASQSVSSAVAWYQQKPGKAPKLLIYSASSLYSGVPSRFSGSRSGTDFTLTISSLQPEDFATYYCQQGPWYPFTFGQGTKVEIK
On to B5, for which, in [1], the “percent growth inhibition, RWP1 2 μg/ml” value is 20.34%. Besides, in experiment [2], the “percent growth inhibition, ASPC-1 2 μg/ml” value turned out to be 3.18%. Also, the “percent growth inhibition, PATU8988s 2 μg/ml” value in experiment [3] came to 8.24%. In experiment [4], the “Immunofluorescence binding … FZD6” value is reported as “−”. In experiment [5], the “Immunofluorescence binding … FZD10” value was “−”. For the same molecule, in experiment [6], the “Immunofluorescence binding … FZD7” value is “+++”. Moreover, in [9], the “percent growth inhibition, HPAFII 2 μg/ml” value stood at 2.08%.

B6: Fab-2901: anti-FZD5 Fab with antibody variable region Fv-2901; CDR SEQ ID NOs: 35, 36, 40, 79, 116, 154 (antibody, V domains shown)
VH: EVQLVESGGGLVQPGGSLRLSCAASGFNISYSYMHWVRQAPGKGLEWVASIYSYSSYTYYADSVKGRFTISADTSKNTAYLQMNSLRAEDTAVYYCARSWYYWSPSSGMDYWGQGTLVTVSS
VL: DIQMTQSPSSLSASVGDRVTITCRASQSVSSAVAWYQQKPGKAPKLLIYSASSLYSGVPSRFSGSRSGTDFTLTISSLQPEDFATYYCQQGGFLITFGQGTKVEIK
Regarding B6, the “percent growth inhibition, RWP1 2 μg/ml” value in experiment [1] is reported as −19.95%. The “percent growth inhibition, ASPC-1 2 μg/ml” value in [2] is listed as −8.27%. In experiment [3], the “percent growth inhibition, PATU8988s 2 μg/ml” value is given as −9.37%. In addition, in experiment [4], the “Immunofluorescence binding … FZD6” value is “−”. Further, in experiment [5], the “Immunofluorescence binding … FZD10” value was “−”. The “Immunofluorescence binding … FZD7” value in experiment [6] is “+”. In [7], the “percent growth inhibition, RWP1 10 μg/ml” value is reported as 21.10%. Further, in experiment [8], the “percent growth inhibition, PATU8988s 10 μg/ml” value was −6.65%. Further, in experiment [9], the “percent growth inhibition, HPAFII 2 μg/ml” value amounted to 6.38% and the “percent growth inhibition, HPAFII 10 μg/ml” value was determined as 12.31%. Further, in [10], the “percent growth inhibition, ASPC-1 10 μg/ml” value was found to be 11.26%.
